1 protein from paper doi:10.1101/2023.08.25.554800, “CryoEM architecture of a native stretch-sensitive membrane microdomain” (bioRxiv, 2023) can be followed below.

The series deals with the molecule itself. The experiment in a line: cryo-EM structure; 15-20uM recombinant Pil1 with ~2mg/mL LUVs of three lipid mixtures (-PI(4,5)P2/+sterol, +PI(4,5)P2/-sterol, +PI(4,5)P2/+sterol), 30°C for 1hr, 20 mM HEPES pH 7.4, 150 mM KoAc, 2 mM MgAc; helical reconstruction.

B1: Recombinant Pil1 (natural protein, S. cerevisiae, UniProt P53252 1-339, looked up)
chain: MHRTYSLRNSRAPTASQLQNPPPPPSTTKGRFFGKGGLAYSFRRSAAGAFGPELSRKLSQLVKIEKNVLRSMELTANERRDAAKQLSIWGLENDDDVSDITDKLGVLIYEVSELDDQFIDRYDQYRLTLKSIRDIEGSVQPSRDRKDKITDKIAYLKYKDPQSPKIEVLEQELVRAEAESLVAEAQLSNITRSKLRAAFNYQFDSIIEHSEKIALIAGYGKALLELLDDSPVTPGETRPAYDGYEASKQIIIDAESALNEWTLDSAQVKPTLSFKQDYEDFEPEEGEEEEEEDGQGRWSEDEQEDGQIEEPEQEEEGAVEEHEQVGHQQSESLPQQTTA
notes: Pil1 of S. cerevisiae, PIL1 cloned into pCoofy6; the printed primers run from the ATG to the stop codon; The N-terminal position of Sumo3 is read from the primer LP1-Sumo3-Pil1-fwd; also called reconstituted Pil1; source: E. coli BL21(DE3)pLysS, purified (HisTrap, HiTrap Q, Sumo3 cleaved with SenP2, Superdex 200); not shown: Sumo3, N-terminal, cleaved
For B1, the binding result was “binds”.
